Consider one protein from FireProtDB (doi:10.1021/bi9621829).

For this series the following is noted: Homo sapiens; pH 2.7; Thermal; DSC; glycine 0.05 M; reversible: yes; whole UniProt chain shown.

B1: Lysozyme C wild type, P61626 (protein)
chain: MKALIVLGLVLLSVTVQGKVFERCELARTLKRLGMDGYRGISLANWMCLAKWESGYNTRATNYNAGDRSTDYGIFQINSRYWCNDGKTPGAVNACHLSCSALLQDNIADAVACAKRVVRDPQGIRAWVAWRNRCQNRDVRQYVQGCGV
As for B1, the Tm (in general, the temperature at the midpoint of the melting transition) came to 64.9 °C; the “heat capacity change of unfolding” value was 1.58 kcal/mol/K; the “unfolding enthalpy (calorimetric)” value amounted to 114 kcal/mol; the “unfolding enthalpy (van 't Hoff)” value was 120 kcal/mol.
